Here are results for two molecules from article PMC12233901, “Resolving the APN controversy in PEDV infection: Comparative kinetic characterization through single-virus tracking” (PLOS Pathogens, 2025).

The test concerns the target T1, porcine aminopeptidase N (pAPN) fused with a hFc tag (porcine, UniProt P15145).
T1 construct: also called porcine APN; source: HEK293T cell expression system, expressed and purified
T1 sequence: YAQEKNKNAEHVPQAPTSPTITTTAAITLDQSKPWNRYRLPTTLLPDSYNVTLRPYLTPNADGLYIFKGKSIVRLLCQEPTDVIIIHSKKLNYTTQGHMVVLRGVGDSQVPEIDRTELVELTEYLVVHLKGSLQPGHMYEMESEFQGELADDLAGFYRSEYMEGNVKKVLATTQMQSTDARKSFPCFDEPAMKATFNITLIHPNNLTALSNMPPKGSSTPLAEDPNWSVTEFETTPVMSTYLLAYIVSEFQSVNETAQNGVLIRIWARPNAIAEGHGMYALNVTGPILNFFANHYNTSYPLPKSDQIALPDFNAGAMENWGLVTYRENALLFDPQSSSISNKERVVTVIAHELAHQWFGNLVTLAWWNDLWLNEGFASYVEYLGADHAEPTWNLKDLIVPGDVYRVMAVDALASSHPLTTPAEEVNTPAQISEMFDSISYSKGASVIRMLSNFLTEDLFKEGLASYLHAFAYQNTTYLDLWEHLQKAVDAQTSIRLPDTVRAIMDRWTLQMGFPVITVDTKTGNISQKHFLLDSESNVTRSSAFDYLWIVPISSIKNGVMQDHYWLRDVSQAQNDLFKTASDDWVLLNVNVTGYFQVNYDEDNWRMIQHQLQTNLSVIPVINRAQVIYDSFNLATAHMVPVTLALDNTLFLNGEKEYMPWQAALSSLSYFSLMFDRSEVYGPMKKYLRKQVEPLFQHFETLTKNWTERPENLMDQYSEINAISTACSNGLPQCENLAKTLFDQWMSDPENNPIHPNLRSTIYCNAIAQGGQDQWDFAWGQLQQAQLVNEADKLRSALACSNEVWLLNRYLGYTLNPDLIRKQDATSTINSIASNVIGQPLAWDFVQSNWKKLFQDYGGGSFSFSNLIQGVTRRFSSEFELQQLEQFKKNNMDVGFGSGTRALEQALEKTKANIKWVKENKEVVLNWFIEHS
In words: SPR; […]; Biacore 8K, room temperature. To be noted: both partners purified. A general note: SPR reads the build-up and loss of mass on a sensor chip optically.

B1: PEDV S1 protein with a C-terminal His tag (domain or fragment)
chain: CQSTTNFRRFFSKFNVQAPAVVVLGGYLPSMNSSSWYCGTGIETASGVHGIFLSYIDSGQGFEIGISQEPFDPSGYQLYLHKATNGNTNAIARLRICQFPDNKTLGPTVNDVTTGRNCLFNKAIPAYMRDGKDIVVGITWDNDRVTVFADKIYHFYLKNDWSRVATRCYNRRSCAMQYVYTPTYYMLNVTSAGEDGIYYEPCTANCTGYAANVFATDSNGHIPEGFSFNNWFLLSNDSTLLHGKVVSNQPLLVNCLLAIPKIYGLGQFFSFNHTMDGVCNGAAVDRAPEALRFNINDTSVILAEGSIVLHTALGTNLSFVCSNSSDPHLAIFAIPLGATEVPYYCFLKVDTYNSTVYKFLAVLPPTVREIVITKYGDVYVNGFGYLHLGLLDAVTINFTGHGTDDDVSGFWTIASTNFVDALIEVQGTSIQRILYCDDPVSQLKCSQVAFDLDDGFYPISSRNLLSHEQPISFVTLPSFNDHSFVNITVSAAFGGLSSANLVASDTTINGFSSFCVDTRQFTITLFYNVTNSYGYVSKSQDSNCPFTLQSVNDYLSFSKFCVSTSLLAGACTIDLFGYPAFGSGVKLTSLYFQFTKGELITGTPKPLEGITDVSFMTLDVCTKYTIYGFKGEGIITLTNSSILAGVYYTSDSGQLLAFKNVTSGAVYSVTPCSFSEQAAYVNDDIVGVISSLSNSTFNNTRELPGFFYH
In turn, B1 yielded a dissociation constant Kd of 47.5 µM.

B2: TGEV S1 protein with a C-terminal His tag (domain or fragment)
chain: IGNHWNLIETFLLNYSSRLPPNSDAVLGDYFPTVQPWFNCIRNNSNDLYVTLENLKALYWDYAIENITSNHKQRLNVVVNGYPYSITVTTTRNFNSAEGAIICICKGSPPTTTTESSLTCNWGSECRLNHKFPICPSNSEANCGNMLYGLQWFADAVVAYLHGASYRISFENQWSGTVTLGDMRATTLETAGTLVDLWWFNPVYDVSYYRVNNKNGTTVVSNCTDQCASYVANVFTTQPGGFIPSDFSFNNWFLLTNSSTLVSGKLVTKQPLLVNCLWPVPSFEEAASTFCFEGAGFDQCNGAVLNNTVDVIRFNLNFTTNVQSGKGATVFSLNTTGGVTLEISCYNDTVSDSSFSSYGEMPFGVTDGPRYCYVLYNGTALKYLGTLPPVVKEIAISKWGHFYINGYNFFSTFPIDCISFNLTTGDSDVFWTIAYTSYTEALVQVENTAITKVTYCNSYVNNIKCSQLTANLNNGFYPVSSSEVGLVNKSVVLLPSFYTHTIVNITIGLGMKRSGYGQPIASTLSNITLPMQDDNTDVYCIRSDQFSVYVHSTCKSALWDNVFKRNCTDVLDATAVIKTGTCPFSFAKLNNYLTFNKFCLSLSPVGANCKFDVAARTRTNDQVVRSLYVIYEEGDNIVGVPSDNSGLHDLSVLHLDSCTDYNIYGRTGVGIIRQTNRTLLSGLYYTSLSGDLLGFKNVSDGVIYSVTPCDVIAQAAVIDGTIVGAITSINSELLGLTHWTTTPNFYYY
For B2, the Kd amounted to 0.392 µM.

The term Kd denotes the concentration at which binding is half-saturated. A low value points to higher affinity.
